Measured values taken from patent USRE39849 (CHEMOCENTRYX, dated 2007).

Tests used:
[1] = biological target: T1, human CCX CKR with N-terminal Flag epitope, stably expressed on HEK293 cells (human, UniProt Q9NPB9 1-350); test: radioligand binding competition on CCX CKR stable transfectants
T1 construct: also called HEK293-CCX CKR cells
T1 sequence: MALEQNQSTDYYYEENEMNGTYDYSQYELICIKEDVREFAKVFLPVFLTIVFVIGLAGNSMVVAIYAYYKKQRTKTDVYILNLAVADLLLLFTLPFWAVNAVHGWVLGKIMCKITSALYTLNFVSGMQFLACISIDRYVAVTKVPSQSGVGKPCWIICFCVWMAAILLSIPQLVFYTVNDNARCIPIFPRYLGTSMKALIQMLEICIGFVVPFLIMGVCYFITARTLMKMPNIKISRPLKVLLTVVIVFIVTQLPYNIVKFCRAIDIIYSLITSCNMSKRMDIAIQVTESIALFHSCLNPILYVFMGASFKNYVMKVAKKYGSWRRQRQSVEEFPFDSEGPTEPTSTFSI

[2] = biological target: T1, human CCX CKR with N-terminal Flag …; test: displacement of 125I-ELC (or 125I-TECK) from CCX CKR stable transfectants, cold chemokine at 200 nM
[3] = biological target: T1, human CCX CKR with N-terminal Flag …; test: radioligand binding competition on CCX CKR stable transfectants (similar experiments, not shown)

B1: human ELC (EBI1 ligand chemokine) (ligand, UniProt Q99731 22-98, looked up)
chain: GTNDAEDCCLSVTQKPIPGYIVRNFHYLLIKDGCRVPAVVFTTLRGRQLCAPPDQPWVERIIQRLQRTSAKMKRRSS
notes: also called MIP-3beta; MIP3beta
[1]
  binding result: binds

B2: human SLC (secondary lymphoid-tissue chemokine) (ligand, UniProt O00585 24-134, looked up)
chain: SDGGAQDCCLKYSQRKIPAKVVRSYRKQEPSLGCSIPAILFLPRKRSQAELCADPKELWVQQLMQHLDKTPSPQKPAQGCRKDRGASKTGKKGKGSKGCKRTERSQTPKGP
notes: also called 6Ckine; soluble SLC
[2]
  binding result: binds

B3: murine ELC (ligand, UniProt O70460 26-108, looked up)
chain: GANDAEDCCLSVTQRPIPGNIVKAFRYLLNEDGCRVPAVVFTTLRGYQLCAPPDQPWVDRIIRRLKKSSAKNKGNSTRRSPVS
notes: also called murine version of ELC
[1]
  binding result: binds

B4: murine TECK (ligand, UniProt O35903 24-144, looked up)
chain: QGAFEDCCLGYQHRIKWNVLRHARNYHQQEVSGSCNLRAVRFYFRQKVVCGNPEDMNVKRAMRILTARKRLVHWKSASDSQTERKKSNHMKSKVENPNSTSVRSATLGHPRMVMMPRKTNN
notes: also called murine version of TECK
[2]
  binding result: binds

B5: murine CTACK (ligand, UniProt Q9Z1X0 26-120, looked up)
chain: LPLPSSTSCCTQLYRQPLPSRLLRRIVHMELQEADGDCHLQAVVLHLARRSVCVHPQNRSLARWLERQGKRLQGTVPSLNLVLQKKMYSHPQQQN
notes: also called mCTACK; CCL27
[3]
  Kd: ~9 nM

B6: human TECK (thymus expressed chemokine) (ligand, UniProt O15444 24-150, looked up)
chain: QGVFEDCCLAYHYPIGWAVLRRAWTYRIQEVSGSCNLPAAIFYLPKRHRKVCGNPKSREVQRAMKLLDARNKVFAKLHHNTQTFQAGPHAVKKLSSGNSKLSSSKFSNPISSSKRNVSLLISANSGL
notes: also called soluble TECK; cold TECK
[2]
  binding result: binds

B7: mMIP-1 gamma (murine macrophage inflammatory protein-1 gamma) (ligand, UniProt P51670 22-122, looked up)
chain: QITHATETKEVQSSLKAQQGLEIEMFHMGFQDSSDCCLSYNSRIQCSRFIGYFPTSGGCTRPGIIFISKRGFQVCANPSDRRVQRCIERLEQNSQPRTYKQ
notes: also called mMIP-1γ; CCF18
[2]
  binding result: binds
